Columns and labels:
Settings in all cases: source organism: Bacillus anthracis str. A0488
HLA-B*27:05 = test: IEDB peptide-MHC binding, purified MHC/competitive/fluorescence; filed as Kd, often an IC50 or EC50 that approximates it; ≥ and ≤ were set here for values at or beyond the usual limits of such assays
HLA-A*02:01 = test: as above
HLA-A*24:03 = test: as above
HLA-B*53:01 = test: as above
HLA-B*07:02 = test: as above
HLA-B*44:02 = test: as above
HLA-B*40:01 = test: as above
HLA-B*27:03 = test: as above
HLA-B*57:01 = test: as above
HLA-A*66:01 = test: as above
HLA-B*15:01 = test: as above
HLA-B*08:01 = test: as above
HLA-B*18:01 = test: as above
HLA-A*30:02 = test: as above
HLA-B*46:01 = test: as above
HLA-A*03:01 = test: as above
HLA-B*14:02 = test: as above
HLA-A*68:02 = test: as above
HLA-A*01:01 = test: as above
HLA-B*51:01 = test: as above
HLA-A*11:01 = test: as above
HLA-B*58:01 = test: as above
HLA-B*39:01 = test: as above
HLA-A*29:02 = test: as above
HLA-A*30:01 = test: as above
HLA-A*26:01 = test: as above
HLA-C*12:03 = test: IEDB peptide-MHC binding, purified MHC/direct/fluorescence; filed as Kd, often an IC50 or EC50 that approximates it; ≥ and ≤ were set here for values at or beyond the usual limits of such assays

FVMPIFEQI gave a Kd (HLA-B*27:05) of no less than 5 µM, a Kd (HLA-A*02:01) of no less than 5 µM and a Kd (HLA-A*24:03) of 0.0032 µM. The Kd (HLA-B*53:01) was no less than 5 µM, the Kd (HLA-B*07:02) was no less than 5 µM and the Kd (HLA-B*44:02) was no less than 5 µM. For the same sequence, the Kd (HLA-B*40:01) was no less than 5 µM, the Kd (HLA-B*27:03) was no less than 20 µM and the Kd (HLA-B*57:01) was no less than 20 µM. It also gave a Kd (HLA-A*66:01) of no less than 5 µM, a Kd (HLA-B*15:01) of no less than 20 µM and a Kd (HLA-B*08:01) of no less than 5 µM. It also gave a Kd (HLA-B*18:01) of no less than 20 µM, a Kd (HLA-A*30:02) of no less than 5 µM and a Kd (HLA-B*46:01) of no less than 20 µM. The Kd (HLA-A*03:01) was no less than 20 µM, the Kd (HLA-B*14:02) was no less than 5 µM and the Kd (HLA-A*68:02) was 0.0003 µM. It also gave a Kd (HLA-A*01:01) of no less than 5 µM, a Kd (HLA-B*51:01) of no less than 20 µM and a Kd (HLA-A*11:01) of no less than 5 µM. It also gave a Kd (HLA-B*58:01) of no less than 5 µM, a Kd (HLA-B*39:01) of no less than 20 µM and a Kd (HLA-A*29:02) of no less than 5 µM. The Kd (HLA-A*30:01) was no less than 5 µM, the Kd (HLA-A*26:01) was no less than 20 µM and the Kd (HLA-C*12:03) was 0.068 µM.
